Measurements as given in publication PMC3931528.

Molecular target: PTB RRM1 (UniProt P26599 41-163)
Experiment: ITC

Chain of PTB RRM1 (P26599 41-163): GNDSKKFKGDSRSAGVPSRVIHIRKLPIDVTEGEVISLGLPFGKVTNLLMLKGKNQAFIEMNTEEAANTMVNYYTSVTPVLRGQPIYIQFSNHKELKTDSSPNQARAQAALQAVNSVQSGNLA

UCUCU (ssRNA) [CU 5-mer RNA] showed a Kd of 24.7 µM.
